Test results as given in US20070265201A1 (published 2007).
Ends that are not written are not given here.

Experiments:
Assay in all cases: GST pull-down, 35S-labeled in vitro translated probe, autoradiography
[1] = biological target: T1, Cytomegalovirus (CMV) Immediate Early 2 protein (IE2), in vitro translated radiolabeled probe (human Cytomegalovirus (hCMV), UniProt P19893 1-580, labeled with 35S methionine)
T1 sequence: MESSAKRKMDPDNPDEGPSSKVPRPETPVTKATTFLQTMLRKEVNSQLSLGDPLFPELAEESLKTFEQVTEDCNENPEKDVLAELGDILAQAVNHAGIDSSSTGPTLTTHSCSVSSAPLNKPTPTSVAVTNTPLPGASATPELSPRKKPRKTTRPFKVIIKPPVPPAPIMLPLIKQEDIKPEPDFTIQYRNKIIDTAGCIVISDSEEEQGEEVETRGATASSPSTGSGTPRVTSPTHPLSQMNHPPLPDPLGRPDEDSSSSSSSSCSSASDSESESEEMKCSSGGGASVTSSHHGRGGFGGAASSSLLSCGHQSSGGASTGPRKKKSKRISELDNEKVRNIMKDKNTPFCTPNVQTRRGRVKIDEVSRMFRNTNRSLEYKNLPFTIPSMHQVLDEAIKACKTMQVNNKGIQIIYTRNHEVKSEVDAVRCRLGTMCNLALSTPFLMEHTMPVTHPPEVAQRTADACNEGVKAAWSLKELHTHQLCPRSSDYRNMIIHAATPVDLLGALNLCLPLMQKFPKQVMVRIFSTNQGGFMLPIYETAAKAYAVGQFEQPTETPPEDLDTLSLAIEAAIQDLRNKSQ

[2] = biological target: T2, Spi-1 ETS domain, in vitro translated radiolabeled probe (UniProt P17947 170-253)
T2 construct: domain: ETS domain; also called PU.1 ETS domain

[3] = biological target: T3, C/EBPβ bZIP domain, in vitro translated radiolabeled probe (UniProt P17676 269-345, labeled with 35S methionine)
T3 construct: range 269-345; Residues 269-345 are stated for the bZIP expression vector in pcDNA3.1; also called bZIP region of NFIL6

Measured: binding result

T3 sequence (P17676 269-345 limits assumed): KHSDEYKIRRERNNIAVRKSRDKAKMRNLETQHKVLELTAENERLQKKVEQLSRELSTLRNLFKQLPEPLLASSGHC

B1: GST fusion of IE2 291-364 fragment with an internal deletion of residues 315-328 (delA) (other)
chain: SSHHGRGGFGGAASSSLLSCGHQSRISELDNEKVRNIMKDKNTPFCTPNVQTRRGRVKID
modifications: cysteine pairing not given here; also: GST fusion, linker and position not given here
notes: also called IE2 291-364Δ315-328; not shown: glutathione-S-transferase (GST) fusion partner
no binding: all assays above
